Series [1] addresses T1, GST-ABP9 (Zea mays, UniProt D2KNW6 1-385).
T1 sequence: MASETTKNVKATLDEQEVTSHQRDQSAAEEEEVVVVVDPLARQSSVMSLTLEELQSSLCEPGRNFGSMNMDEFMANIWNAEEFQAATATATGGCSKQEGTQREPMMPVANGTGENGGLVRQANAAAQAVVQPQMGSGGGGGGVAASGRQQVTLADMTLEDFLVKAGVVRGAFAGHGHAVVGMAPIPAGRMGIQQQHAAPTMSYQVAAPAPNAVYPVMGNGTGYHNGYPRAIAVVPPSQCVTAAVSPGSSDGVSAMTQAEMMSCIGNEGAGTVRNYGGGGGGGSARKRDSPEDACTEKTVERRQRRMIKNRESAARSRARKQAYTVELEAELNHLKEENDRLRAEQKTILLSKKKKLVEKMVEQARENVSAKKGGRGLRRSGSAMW
The experiment in a line: EMSA.

Series [2] concerns the target T1, GST-ABP9. The experiment in a line: EMSA. The source holds these as a separate data set.

Like-named read-outs stand apart in the source and are kept apart here.

B1: ABRE2 (dsDNA)
DNA 1: GAAGTCCACGTGGAGGTGG
DNA 2: CCACCTCCACGTGGACTTC
Turning to B1, the binding result in the series with GST-ABP9 [1] is recorded as “binds”.

B2: mABRE2 (dsDNA)
DNA 1: GAAGTAACATGTTCGGTGG
DNA 2: CCACCGAACATGTTACTTC
On to B2, for which, in the series with GST-ABP9 [2], the binding result is on record as “no binding”.

Source of the values: paper PMC3044229.
